# Test results taken from publication PMC2684811 (Analytical biochemistry, 2009).
# B1: α-bungarotoxin (natural protein)
# chain: IVCHTTATSPISAVTCPPGENLCYRKMWCDAFCSSRGKVVELGCAATCPSKKPYEEVTCCSTDKCNPHPKQRPG
# Molecular target: acetylcholine-binding protein (AChBP) from Lymnaea stagnalis, carboxy-terminal hexahistidine-tagged (Lymnaea stagnalis, UniProt P58154 20-229)
# Experiment: SPR
# Chain of acetylcholine-binding protein (AChBP) from Lymnaea stagnalis, carboxy-terminal hexahistidine-tagged (P58154 20-229): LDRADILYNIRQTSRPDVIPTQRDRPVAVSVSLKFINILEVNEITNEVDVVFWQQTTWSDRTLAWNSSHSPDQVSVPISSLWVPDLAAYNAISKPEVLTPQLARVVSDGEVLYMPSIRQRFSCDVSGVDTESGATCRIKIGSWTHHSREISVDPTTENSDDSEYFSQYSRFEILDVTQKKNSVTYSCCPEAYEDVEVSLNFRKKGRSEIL
binder,measurement,value
B1,binding result,binds
